Reference: patent publication US20200407436A1 (published 2020)
“And” between values parts separate entries of the source, which are not always exact repeats. Equal entries are not always repeated. One block for each binder: values may come before it.

Tests used:
mature human TGF-beta 2 [1] = target: T1, mature human TGF-beta 2 (human, UniProt P61812 303-414); experiment: X-ray crystal structure of the complex
T1 construct: also called TGFb2; TGFB2
T1 sequence: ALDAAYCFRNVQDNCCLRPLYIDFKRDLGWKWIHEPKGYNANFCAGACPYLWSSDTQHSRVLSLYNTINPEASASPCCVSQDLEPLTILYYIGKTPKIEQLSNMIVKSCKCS

mature human TGF-beta 1 [2] = target: T2, mature human TGF-beta 1 (human, UniProt P01137 279-390); experiment: cell-based or functional assay
T2 sequence (P01137 279-390 limits assumed): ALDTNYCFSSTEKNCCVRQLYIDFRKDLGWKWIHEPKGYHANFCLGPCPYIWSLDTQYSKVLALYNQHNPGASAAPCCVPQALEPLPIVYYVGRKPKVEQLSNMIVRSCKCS

mature human TGF-beta 2 [3] = target: T1, mature human TGF-beta 2; experiment: cell-based or functional assay
mature human TGF-beta 3 [4] = target: T3, mature human TGF-beta 3 (human, UniProt P10600 301-412); experiment: cell-based or functional assay
T3 sequence: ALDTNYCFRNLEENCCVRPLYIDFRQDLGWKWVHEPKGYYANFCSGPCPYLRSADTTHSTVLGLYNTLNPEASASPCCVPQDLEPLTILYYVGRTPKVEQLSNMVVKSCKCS

[5] = target: TGF-beta produced and activated by BxPC3 cells; experiment: cell-based or functional assay
mature human TGF-beta 1 [6] = target: T2, mature human TGF-beta 1; experiment: SPR Biacore T200, TGF-beta amine-coupled (~150 RU), Fab as analyte; heterogeneous ligand fit, component 1 (KD1; believed occluded, weak interaction)
Procedure: (§1) Background subtraction binding curves were analysed using the Biacore™ T200 evaluation software (version 1.0) following standard procedures.

mature human TGF-beta 2 [7] = target: T1, mature human TGF-beta 2; experiment: as above
Procedure: as §1

mature human TGF-beta 3 [8] = target: T3, mature human TGF-beta 3; experiment: as above
Procedure: as §1

mature human TGF-beta 1 [9] = target: T2, mature human TGF-beta 1; experiment: SPR Biacore T200, TGF-beta amine-coupled (~150 RU), Fab as analyte; heterogeneous ligand fit, component 1 (Ka1; believed occluded, weak interaction)
Procedure: as §1

mature human TGF-beta 2 [10] = target: T1, mature human TGF-beta 2; experiment: as above
Procedure: as §1

mature human TGF-beta 3 [11] = target: T3, mature human TGF-beta 3; experiment: as above
Procedure: as §1

mature human TGF-beta 1 [12] = target: T2, mature human TGF-beta 1; experiment: SPR Biacore T200, TGF-beta amine-coupled (~150 RU), Fab as analyte; heterogeneous ligand fit, component 1 (Kd1; believed occluded, weak interaction)
Procedure: as §1

mature human TGF-beta 2 [13] = target: T1, mature human TGF-beta 2; experiment: as above
Procedure: as §1

mature human TGF-beta 3 [14] = target: T3, mature human TGF-beta 3; experiment: as above
Procedure: as §1

mature human TGF-beta 1 [15] = target: T2, mature human TGF-beta 1; experiment: SPR Biacore T200, TGF-beta amine-coupled (~150 RU), Fab as analyte; heterogeneous ligand fit, component 2 (KD2; believed non-occluded, representative)
Procedure: as §1

mature human TGF-beta 2 [16] = target: T1, mature human TGF-beta 2; experiment: as above
Procedure: as §1

mature human TGF-beta 3 [17] = target: T3, mature human TGF-beta 3; experiment: as above
Procedure: as §1

mature human TGF-beta 1 [18] = target: T2, mature human TGF-beta 1; experiment: SPR Biacore T200, TGF-beta amine-coupled (~150 RU), Fab as analyte; heterogeneous ligand fit, component 2 (ka2; believed non-occluded, representative)
Procedure: as §1

mature human TGF-beta 2 [19] = target: T1, mature human TGF-beta 2; experiment: as above
Procedure: as §1

mature human TGF-beta 3 [20] = target: T3, mature human TGF-beta 3; experiment: as above
Procedure: as §1

mature human TGF-beta 1 [21] = target: T2, mature human TGF-beta 1; experiment: SPR Biacore T200, TGF-beta amine-coupled (~150 RU), Fab as analyte; heterogeneous ligand fit, component 2 (kd2; believed non-occluded, representative)
Procedure: as §1

mature human TGF-beta 2 [22] = target: T1, mature human TGF-beta 2; experiment: as above
Procedure: as §1

mature human TGF-beta 3 [23] = target: T3, mature human TGF-beta 3; experiment: as above
Procedure: as §1

mature human TGF-beta 1 [24] = target: T2, mature human TGF-beta 1; experiment: cell-based or functional assay; remark: listed apart in the source
mature human TGF-beta 2 [25] = target: T1, mature human TGF-beta 2; experiment: cell-based or functional assay; remark: listed apart in the source
mature human TGF-beta 3 [26] = target: T3, mature human TGF-beta 3; experiment: cell-based or functional assay; remark: listed apart in the source
[27] = target: TGF-beta produced and activated by BxPC3 cells; experiment: cell-based or functional assay; remark: listed apart in the source

B1: scFv 4856 (scFv)
scFv: EVQLVESGGGLVKPGGSLRLSCAASGFSLSSYDMSWVRQAPGKCLEWIGIIYGGSGSTWYASWAKGRFTISRDSAKNSVYLQMNSLRAEDTAVYYCARGRDAGAGGSRNGYSLWGQGTLVTVSSGGGGSGGGGSGGGGSGGGGSAYDMTQSPSTLSASVGDRVTITCQASESIYSGLAWYQQKPGKAPKLLIYAASDLASGVPSRFSGSGSGTEYTLTISSLQPDDFATYYCQQTWTDGGIDNPFGCGTKVEIKRTENLYFQ
binding result (mature human TGF-beta 2 [1]): binds

B2: 4856 rabbit Fab (Fab, V domains shown)
VH: QSLEESGGRLVTPGTPLTLTCTASGFSLSSYDMSWVRQAPGKGLEWIGIIYGGSGSTWYASWAKGRFTMSKTSTTVDLKITSPTTEDMATYFCARGRDGGAGGSRNGYSLWGQGTLVTVSS
VL: AYDMTQTPASVEVAVGGTVTIKCQASESIYSGLAWYQQTPGQRPKLLIYAASDLASGVPSRFKGSGSGTEYTLTISGVECADAATYYCQQTWTDGGIDNPFGGGTEVVVKR
notes: Rabbit variable regions cloned into rabbit Fab no hinge (VH) and rabbit kappa (VL) vectors, expressed in Expi-293 cells; also called BSN.4856.rbFab
Geomean IC50, HEK-Blue TGF-beta reporter gene assay (mature human TGF-beta 1 [2]): 1.77 unit unclear (column head says nM, but r10 gives the nM value in brackets) and 0.04 nM
Geomean IC50, HEK-Blue TGF-beta reporter gene assay (mature human TGF-beta 2 [3]): 0.3 unit unclear (column head says nM, but r10 gives the nM value in brackets) and 0.01 nM
Geomean IC50, HEK-Blue TGF-beta reporter gene assay (mature human TGF-beta 3 [4]): 24.5 unit unclear (column head says nM, but r10 gives the nM value in brackets) and 0.54 nM
Geomean IC50, BxPC3-HEK-Blue TGF-beta reporter gene co-culture assay [5]: 3.7 nM
Kd (mature human TGF-beta 1 [6]): 6.3 nM
Kd (mature human TGF-beta 2 [7]): 1.69 nM
Kd (mature human TGF-beta 3 [8]): 12.4 nM
kon (mature human TGF-beta 1 [9]): 50500 M⁻¹ s⁻¹
kon (mature human TGF-beta 2 [10]): 38700 M⁻¹ s⁻¹
kon (mature human TGF-beta 3 [11]): 63300 M⁻¹ s⁻¹
koff (mature human TGF-beta 1 [12]): 0.000318 s⁻¹
koff (mature human TGF-beta 2 [13]): 6.55e-05 s⁻¹
koff (mature human TGF-beta 3 [14]): 0.000782 s⁻¹
Kd (mature human TGF-beta 1 [15]): 0.112 nM
Kd (mature human TGF-beta 2 [16]): 0.606 nM
Kd (mature human TGF-beta 3 [17]): 1.65 nM
kon (mature human TGF-beta 1 [18]): 455000 M⁻¹ s⁻¹
kon (mature human TGF-beta 2 [19]): 632000 M⁻¹ s⁻¹
kon (mature human TGF-beta 3 [20]): 873000 M⁻¹ s⁻¹
koff (mature human TGF-beta 1 [21]): 5.08e-05 s⁻¹
koff (mature human TGF-beta 2 [22]): 0.000383 s⁻¹
koff (mature human TGF-beta 3 [23]): 0.00144 s⁻¹

Second part, the binder after the results:

Geometric mean IC50, HEK-Blue TGF-beta reporter gene assay (mature human TGF-beta 1 [24]): 0.41 nM
Geometric mean IC50, HEK-Blue TGF-beta reporter gene assay (mature human TGF-beta 2 [25]): 0.017 nM
Geometric mean IC50, HEK-Blue TGF-beta reporter gene assay (mature human TGF-beta 3 [26]): 1.99 nM
Geometric mean IC50, BxPC3 and HEK-Blue TGF-beta reporter gene co-culture assay [27]: 9.1 nM
B3: humanised antibody 4856 Fab graft gL3gH23 (Fab, V domains shown)
VH: EVQLVESGGGLVKPGGSLRLSCAASGFSLSSYDMSWVRQAPGKGLEWIGIIYGGSGSTWYASWAKGRFTISRDSAKNSVYLQMNSLRAEDTAVYYCARGRDAGAGGSRNAYSLWGQGTLVTVSS
VL: AYDMTQSPSTLSASVGDRVTITCQASESIYSGLAWYQQKPGKAPKLLIYAASDLASGVPSRFSGSGSGTEYTLTISSLQPDDFATYYCQQTWTDGGIDNPFGGGTKVEIKR

Geometric mean IC50, HEK-Blue TGF-beta reporter gene assay (mature human TGF-beta 1 [24]): 0.038 nM
Geometric mean IC50, HEK-Blue TGF-beta reporter gene assay (mature human TGF-beta 2 [25]): 0.011 nM
Geometric mean IC50, HEK-Blue TGF-beta reporter gene assay (mature human TGF-beta 3 [26]): 0.302 nM
Geometric mean IC50, BxPC3 and HEK-Blue TGF-beta reporter gene co-culture assay [27]: 4.63 nM
B4: humanised antibody 4856 Fab graft gL3gH20 (Fab, V domains shown)
VH: EVQLVESGGGLVKPGGSLRLSCAASGFSLSSYDMSWVRQAPGKGLEWISIIYGGSGSTWYASWAKGRFTMSKDSAKNSVYLQMNSLRAEDTAVYYCARGRDAGAGGSRNGYSLWGQGTLVTVSS
VL: AYDMTQSPSTLSASVGDRVTITCQASESIYSGLAWYQQKPGKAPKLLIYAASDLASGVPSRFSGSGSGTEYTLTISSLQPDDFATYYCQQTWTDGGIDNPFGGGTKVEIKR

Geometric mean IC50, HEK-Blue TGF-beta reporter gene assay (mature human TGF-beta 1 [24]): 0.255 nM
Geometric mean IC50, HEK-Blue TGF-beta reporter gene assay (mature human TGF-beta 2 [25]): 0.016 nM
Geometric mean IC50, HEK-Blue TGF-beta reporter gene assay (mature human TGF-beta 3 [26]): 1.95 nM
Geometric mean IC50, BxPC3 and HEK-Blue TGF-beta reporter gene co-culture assay [27]: 3.77 nM
B5: humanised antibody 4856 Fab graft gL3gH29 (Fab, V domains shown)
VH: EVQLVESGGGLVKPGGSLRLSCAASGFSLSSYDMSWVRQAPGKGLEWIGIIYGGSGSTWYASWAKGRFTISRDSAKNSVYLQMNSLRAEDTAVYYCARGRDAGAGGSRDGYSLWGQGTLVTVSS
VL: AYDMTQSPSTLSASVGDRVTITCQASESIYSGLAWYQQKPGKAPKLLIYAASDLASGVPSRFSGSGSGTEYTLTISSLQPDDFATYYCQQTWTDGGIDNPFGGGTKVEIKR
